# The supplement of paper PMC10065799, “High-throughput profiling of sequence recognition by tyrosine kinases and SH2 domains using bacterial peptide display” (eLife, 2023)
# Columns and labels:
# c-Src SH2 = assay: SH2 binding enrichment of the phosphorylated peptide, bacterial display (enrichment ratio); higher = better substrate or ligand; peptides without Tyr show the background
# Grb2 SH2 = Grb2 SH2 (UniProt P62993); assay: as above
# SHP2-C SH2 = assay: as above
# c-Abl (mouse) = assay: phosphorylation enrichment, bacterial display (enrichment ratio); higher = better substrate or ligand; peptides without Tyr show the background
# Fes = Fes (UniProt P07332); assay: as above
# Chain of Fes (P07332 whole entry, looked up): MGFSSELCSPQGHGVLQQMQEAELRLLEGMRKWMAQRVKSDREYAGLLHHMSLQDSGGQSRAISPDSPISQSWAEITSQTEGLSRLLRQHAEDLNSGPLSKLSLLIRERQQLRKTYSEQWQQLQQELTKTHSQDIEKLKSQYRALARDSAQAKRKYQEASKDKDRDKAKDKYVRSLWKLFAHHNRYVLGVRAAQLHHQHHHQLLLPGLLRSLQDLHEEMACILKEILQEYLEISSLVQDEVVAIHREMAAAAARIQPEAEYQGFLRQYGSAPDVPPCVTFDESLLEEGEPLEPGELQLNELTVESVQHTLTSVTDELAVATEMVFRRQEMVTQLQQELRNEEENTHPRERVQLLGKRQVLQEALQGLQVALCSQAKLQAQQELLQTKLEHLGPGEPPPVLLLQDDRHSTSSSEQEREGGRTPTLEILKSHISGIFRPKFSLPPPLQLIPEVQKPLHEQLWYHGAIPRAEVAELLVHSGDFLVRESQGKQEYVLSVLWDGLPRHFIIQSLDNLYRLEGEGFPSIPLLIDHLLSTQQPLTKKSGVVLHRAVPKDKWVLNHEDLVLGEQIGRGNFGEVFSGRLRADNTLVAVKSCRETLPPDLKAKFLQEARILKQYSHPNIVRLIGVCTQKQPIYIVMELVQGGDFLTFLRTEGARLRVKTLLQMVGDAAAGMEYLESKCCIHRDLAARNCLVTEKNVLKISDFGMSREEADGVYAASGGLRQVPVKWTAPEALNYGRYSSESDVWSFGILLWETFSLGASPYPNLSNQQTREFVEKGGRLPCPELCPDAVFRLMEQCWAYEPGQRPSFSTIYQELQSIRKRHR
# c-Src = assay: as above
# Fer (mouse) = assay: as above
# AncSZ = assay: as above
# Fyn = Fyn (UniProt P06241); assay: as above
# Chain of Fyn (P06241 whole entry, looked up): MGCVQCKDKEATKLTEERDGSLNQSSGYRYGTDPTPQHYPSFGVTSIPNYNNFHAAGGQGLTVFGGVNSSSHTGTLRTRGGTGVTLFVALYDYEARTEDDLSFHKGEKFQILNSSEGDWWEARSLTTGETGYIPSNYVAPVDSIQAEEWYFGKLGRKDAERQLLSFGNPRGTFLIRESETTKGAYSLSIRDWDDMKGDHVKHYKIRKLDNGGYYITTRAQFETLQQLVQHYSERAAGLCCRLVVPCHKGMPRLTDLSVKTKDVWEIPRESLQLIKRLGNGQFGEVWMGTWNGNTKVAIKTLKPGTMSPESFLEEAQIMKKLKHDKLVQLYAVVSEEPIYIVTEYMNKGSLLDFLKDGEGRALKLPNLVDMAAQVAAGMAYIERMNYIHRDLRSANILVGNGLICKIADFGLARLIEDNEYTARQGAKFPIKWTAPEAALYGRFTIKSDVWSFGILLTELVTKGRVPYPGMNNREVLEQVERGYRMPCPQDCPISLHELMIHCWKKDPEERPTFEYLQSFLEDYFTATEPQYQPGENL
# EPHB1 = EPHB1 (UniProt P54762); assay: as above
# Chain of EPHB1 (P54762 whole entry, looked up): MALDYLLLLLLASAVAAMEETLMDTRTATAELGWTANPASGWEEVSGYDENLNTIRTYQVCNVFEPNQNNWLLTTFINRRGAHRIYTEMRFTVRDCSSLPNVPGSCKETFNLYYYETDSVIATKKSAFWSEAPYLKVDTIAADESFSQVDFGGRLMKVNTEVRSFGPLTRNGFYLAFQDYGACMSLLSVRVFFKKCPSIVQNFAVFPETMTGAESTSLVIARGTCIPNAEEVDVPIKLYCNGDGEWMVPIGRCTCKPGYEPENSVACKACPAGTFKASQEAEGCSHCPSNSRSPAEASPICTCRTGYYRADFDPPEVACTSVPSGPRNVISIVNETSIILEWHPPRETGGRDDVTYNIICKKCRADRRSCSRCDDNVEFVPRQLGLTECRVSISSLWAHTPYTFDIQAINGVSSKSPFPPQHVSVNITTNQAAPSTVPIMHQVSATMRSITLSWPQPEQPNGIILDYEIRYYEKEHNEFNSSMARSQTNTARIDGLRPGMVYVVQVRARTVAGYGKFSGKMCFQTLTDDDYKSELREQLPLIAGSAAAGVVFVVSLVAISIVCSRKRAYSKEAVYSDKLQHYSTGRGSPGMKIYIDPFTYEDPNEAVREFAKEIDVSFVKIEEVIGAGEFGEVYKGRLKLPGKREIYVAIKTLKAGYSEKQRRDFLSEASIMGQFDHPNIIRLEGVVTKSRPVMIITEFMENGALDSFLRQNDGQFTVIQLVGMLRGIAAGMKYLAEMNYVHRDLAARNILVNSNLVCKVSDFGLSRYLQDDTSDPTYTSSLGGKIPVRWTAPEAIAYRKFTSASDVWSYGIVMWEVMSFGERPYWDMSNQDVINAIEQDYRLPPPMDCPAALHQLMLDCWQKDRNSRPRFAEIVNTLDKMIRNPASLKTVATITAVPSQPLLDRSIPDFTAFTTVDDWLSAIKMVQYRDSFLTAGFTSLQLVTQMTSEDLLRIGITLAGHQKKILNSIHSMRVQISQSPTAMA
# EPHB2 = EPHB2 (UniProt P29323); assay: as above
# Chain of EPHB2 (P29323 whole entry, looked up): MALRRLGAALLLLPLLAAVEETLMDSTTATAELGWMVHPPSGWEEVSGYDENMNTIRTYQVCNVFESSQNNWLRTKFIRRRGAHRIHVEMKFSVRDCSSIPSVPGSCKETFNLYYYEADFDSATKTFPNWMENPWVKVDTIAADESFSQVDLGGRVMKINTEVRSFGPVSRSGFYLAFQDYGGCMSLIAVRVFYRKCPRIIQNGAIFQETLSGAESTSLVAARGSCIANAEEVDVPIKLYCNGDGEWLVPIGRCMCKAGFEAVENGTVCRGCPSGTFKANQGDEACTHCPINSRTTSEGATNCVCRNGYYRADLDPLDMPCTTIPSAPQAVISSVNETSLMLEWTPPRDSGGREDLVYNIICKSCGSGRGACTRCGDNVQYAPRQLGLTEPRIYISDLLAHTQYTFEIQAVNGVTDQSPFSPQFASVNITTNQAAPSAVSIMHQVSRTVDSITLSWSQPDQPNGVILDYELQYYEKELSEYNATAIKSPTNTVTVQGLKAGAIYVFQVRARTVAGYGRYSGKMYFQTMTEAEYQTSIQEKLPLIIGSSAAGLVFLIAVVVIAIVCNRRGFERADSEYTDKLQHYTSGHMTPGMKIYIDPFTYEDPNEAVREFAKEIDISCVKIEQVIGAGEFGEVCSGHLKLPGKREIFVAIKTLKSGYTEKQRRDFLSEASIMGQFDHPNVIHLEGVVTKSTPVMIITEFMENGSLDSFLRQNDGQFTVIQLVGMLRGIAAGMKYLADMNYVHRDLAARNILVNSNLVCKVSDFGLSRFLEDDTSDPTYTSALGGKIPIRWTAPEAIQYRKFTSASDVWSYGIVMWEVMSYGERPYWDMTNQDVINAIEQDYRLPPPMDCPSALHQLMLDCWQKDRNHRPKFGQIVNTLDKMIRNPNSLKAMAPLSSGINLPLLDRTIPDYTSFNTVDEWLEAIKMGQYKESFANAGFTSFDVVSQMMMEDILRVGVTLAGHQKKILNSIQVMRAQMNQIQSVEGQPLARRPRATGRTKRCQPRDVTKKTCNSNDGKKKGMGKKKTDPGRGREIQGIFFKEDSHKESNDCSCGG
# FGFR3 = FGFR3 (UniProt P22607); assay: as above
# Jak2 = Jak2 (UniProt O60674); assay: as above
# FGFR1 = FGFR1 (UniProt P11362); assay: as above
# Chain of FGFR1 (P11362 whole entry, looked up): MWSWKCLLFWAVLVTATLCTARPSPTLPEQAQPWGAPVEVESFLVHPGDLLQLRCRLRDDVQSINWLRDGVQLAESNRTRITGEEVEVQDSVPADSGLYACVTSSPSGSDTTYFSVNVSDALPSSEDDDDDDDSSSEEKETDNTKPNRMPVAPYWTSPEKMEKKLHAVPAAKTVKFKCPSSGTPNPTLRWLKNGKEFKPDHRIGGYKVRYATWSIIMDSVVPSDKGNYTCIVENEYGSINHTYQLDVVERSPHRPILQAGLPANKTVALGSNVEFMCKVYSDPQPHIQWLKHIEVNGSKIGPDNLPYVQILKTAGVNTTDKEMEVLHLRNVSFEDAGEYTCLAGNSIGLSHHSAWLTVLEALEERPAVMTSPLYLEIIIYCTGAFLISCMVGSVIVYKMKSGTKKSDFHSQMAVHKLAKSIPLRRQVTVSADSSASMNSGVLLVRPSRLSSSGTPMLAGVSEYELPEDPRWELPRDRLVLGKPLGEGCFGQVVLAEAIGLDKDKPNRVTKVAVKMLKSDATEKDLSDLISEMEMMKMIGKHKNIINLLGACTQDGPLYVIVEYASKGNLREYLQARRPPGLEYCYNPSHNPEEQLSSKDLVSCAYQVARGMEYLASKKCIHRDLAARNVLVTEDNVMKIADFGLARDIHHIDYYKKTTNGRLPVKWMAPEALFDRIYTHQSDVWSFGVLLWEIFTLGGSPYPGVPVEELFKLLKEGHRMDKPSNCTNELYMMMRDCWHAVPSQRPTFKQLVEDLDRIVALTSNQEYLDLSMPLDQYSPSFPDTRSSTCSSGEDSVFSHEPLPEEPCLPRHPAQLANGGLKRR
# MERTK = MERTK (UniProt Q12866); assay: as above
# Hck = Hck (UniProt P08631); assay: as above
# Chain of Hck (P08631 whole entry, looked up, the tested form may be a part): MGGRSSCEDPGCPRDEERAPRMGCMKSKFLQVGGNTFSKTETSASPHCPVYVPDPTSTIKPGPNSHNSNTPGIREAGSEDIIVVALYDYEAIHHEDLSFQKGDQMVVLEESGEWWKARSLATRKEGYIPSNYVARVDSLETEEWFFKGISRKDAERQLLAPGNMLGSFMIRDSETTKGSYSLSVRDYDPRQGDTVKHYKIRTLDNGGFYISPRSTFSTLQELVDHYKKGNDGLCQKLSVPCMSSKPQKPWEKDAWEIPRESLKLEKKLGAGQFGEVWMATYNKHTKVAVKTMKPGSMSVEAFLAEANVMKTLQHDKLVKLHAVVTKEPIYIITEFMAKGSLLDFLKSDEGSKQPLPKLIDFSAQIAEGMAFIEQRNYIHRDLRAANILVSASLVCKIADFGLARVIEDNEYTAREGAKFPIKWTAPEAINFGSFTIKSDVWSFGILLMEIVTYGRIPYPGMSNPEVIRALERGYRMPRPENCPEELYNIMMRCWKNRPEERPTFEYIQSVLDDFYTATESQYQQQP
# 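Wherever SH2 binding enrichment of the phosphorylated peptide, bacterial display is given: peptide library displayed on the E. coli surface as eCPX fusions, selected cells deep-sequenced, score is each peptide's frequency after selection divided by its frequency in the input.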
# 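Wherever phosphorylation enrichment, bacterial display is given: 11-residue human phosphosite peptides and single-mutation variants displayed on the E. coli surface, counted by deep sequencing, each peptide's frequency after selection divided by its frequency in the unselected input library; frequency after pTyr selection over input frequency; kinase dosed for 20-30% of maximal phosphorylation in three min.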
# Chain of Grb2 SH2 (P62993 whole entry, looked up): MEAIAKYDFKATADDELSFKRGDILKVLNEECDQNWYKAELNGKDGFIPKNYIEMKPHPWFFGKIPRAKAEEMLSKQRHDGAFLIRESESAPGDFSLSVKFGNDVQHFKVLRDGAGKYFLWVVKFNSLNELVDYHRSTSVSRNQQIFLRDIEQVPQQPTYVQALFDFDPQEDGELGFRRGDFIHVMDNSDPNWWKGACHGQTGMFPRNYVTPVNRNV
Sequence,SH2 binding enrichment (c-Src SH2),SH2 binding enrichment (Grb2 SH2),SH2 binding enrichment (SHP2-C SH2),phosphorylation enrichment (c-Abl (mouse)),phosphorylation enrichment (Fes),phosphorylation enrichment (c-Src),phosphorylation enrichment (Fer (mouse)),phosphorylation enrichment (AncSZ),phosphorylation enrichment (Fyn),phosphorylation enrichment (EPHB1),phosphorylation enrichment (EPHB2),phosphorylation enrichment (FGFR3),phosphorylation enrichment (Jak2),phosphorylation enrichment (FGFR1),phosphorylation enrichment (MERTK),phosphorylation enrichment (Hck)
HNELFYEAAEH [VANGL1_Y345_E347A_YF],0.749,0.901,0.531,1.47,1.55,1.89,9.73,1.85,1.05,0.586,0.842,0.884,0.944,0.826,1.46,1.51
HNELFYEEAEH [VANGL1_Y345_YF],0.645,0.599,0.733,0.727,1.35,0.484,4.23,1.89,0.942,0.819,0.932,0.964,0.981,0.809,0.525,0.974
HQNGMYGLHQD [SGSH_Y89],0.603,0.97,0.962,0.726,0.886,0.647,0.656,0.643,0.568,0.346,0.591,0.516,0.726,0.673,0.678,0.564
HRGHLYLAIEY [TEK_Y899_Y897H],0.341,1.36,0.654,0.599,1.56,0.344,0.741,1.51,0.447,1.08,1.16,1.23,0.977,0.942,0.495,0.572
HSLRDYKEALM [ADA2_Y337_H335R],0.467,0.933,0.699,0.751,1.4,0.56,0.44,0.746,0.388,0.775,0.45,0.881,1.03,0.601,0.649,0.679
HYGNNYTDVLQ [MACC1_Y803_R804T],2.72,0.812,3.32,2.17,1.76,0.816,2.53,1.59,0.635,5.63,1.45,1.05,1.35,1.14,0.935,1.12
HYPDVYAREQL [ALX3_Y181],0.564,0.802,0.471,0.511,0.912,0.709,0.36,0.481,0.906,0.518,0.513,0.58,0.892,0.651,0.494,1.14
IAKNPYDPPGR,0.543,0.765,0.482,0.455,0.689,0.38,0.37,0.56,0.344,0.363,0.333,0.48,0.635,0.405,0.426,0.316
IALNSCHSRNC [IFNGR1_Y397_Y397C],0.628,1,0.645,0.36,0.506,0.401,0.379,0.48,0.359,0.337,0.351,0.371,0.375,0.486,0.406,0.358
IALSKYGRVKW [FGF6_Y186_R191W],1.33,1.26,1.89,0.748,0.985,0.437,0.413,0.603,0.306,0.316,0.329,0.357,0.56,0.387,0.365,0.438
ICRWVYPLTPE [EIF2B5_Y319_R315C],0.538,0.883,0.795,0.739,1.36,0.578,0.405,1.29,0.528,0.5,0.542,0.733,1.14,0.516,0.505,0.585
IDDNEYAYLKA [HNF4A_Y286],0.467,0.863,0.545,0.571,0.991,0.677,0.507,1.24,0.564,0.507,0.601,0.868,0.849,1,0.423,0.707
IDDNQYAFLKA [HNF4A_Y286_E285Q_YF],0.803,0.677,0.631,1.02,0.839,0.553,0.852,0.823,0.604,0.494,0.487,1.61,0.709,2.5,0.84,1.64
IDGLEYLHSPG [STK11_Y166_Q170P],0.491,0.819,0.558,0.5,0.69,0.37,0.426,0.931,0.44,0.377,0.584,0.543,0.746,0.467,0.431,0.454
IEKLPYIDKWF [CPS1_Y872_T871P],0.642,0.782,0.679,0.574,1.01,0.479,0.333,0.953,0.368,0.472,0.482,0.567,0.833,0.51,0.359,0.456
IFCIQYNICAF [MYH4_Y820_R823C],1.21,1.7,1.47,1.14,1.53,0.513,0.538,1.28,0.421,0.686,0.9,0.807,1.56,0.451,0.421,0.45
